Laboratory results published in paper PMC9482650, “Quantitative fragmentomics allow affinity mapping of interactomes” (Nature Communications, 2022).

T1: TX1BP3, O14907
T1 sequence (O14907 10-122, limits assumed, looked up): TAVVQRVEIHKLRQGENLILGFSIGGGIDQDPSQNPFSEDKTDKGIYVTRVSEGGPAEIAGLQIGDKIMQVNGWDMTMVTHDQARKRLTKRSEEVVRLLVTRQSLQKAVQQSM

T2: TIAM2, Q8IVF5
T2 sequence (Q8IVF5 885-986, limits assumed, looked up): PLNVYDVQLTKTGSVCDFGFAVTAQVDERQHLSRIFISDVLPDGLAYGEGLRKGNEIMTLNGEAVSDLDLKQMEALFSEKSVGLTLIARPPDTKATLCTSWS

T3: DLG3_1, Q92796
T3 sequence (Q92796 125-227, limits assumed, looked up): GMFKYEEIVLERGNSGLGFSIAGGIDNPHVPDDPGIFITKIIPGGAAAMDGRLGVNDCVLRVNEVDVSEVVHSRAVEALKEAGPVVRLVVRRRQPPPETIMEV

T4: RAPGEF6, Q8TEU7
T4 sequence (Q8TEU7 525-625, limits assumed, looked up): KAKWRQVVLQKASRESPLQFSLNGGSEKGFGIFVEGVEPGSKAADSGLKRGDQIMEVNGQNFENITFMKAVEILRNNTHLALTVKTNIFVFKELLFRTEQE

T5: PCLO, Q9Y6V0
T5 sequence (Q9Y6V0 4491-4600, limits assumed, looked up): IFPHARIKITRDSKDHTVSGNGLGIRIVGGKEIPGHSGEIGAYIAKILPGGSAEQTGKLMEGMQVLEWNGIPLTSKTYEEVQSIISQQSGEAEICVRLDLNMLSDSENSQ

T6: HTRA3, P83110
T6 sequence (P83110 354-453, limits assumed, looked up): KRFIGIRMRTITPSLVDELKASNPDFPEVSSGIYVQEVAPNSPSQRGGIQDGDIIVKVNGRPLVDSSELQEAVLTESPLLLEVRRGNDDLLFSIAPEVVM

T7: SNTG1, Q9NSN8
T7 sequence (Q9NSN8 52-150, limits assumed, looked up): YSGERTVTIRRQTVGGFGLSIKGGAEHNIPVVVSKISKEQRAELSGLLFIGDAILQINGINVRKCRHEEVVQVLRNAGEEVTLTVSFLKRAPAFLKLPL

T8: PDZD2_2, O15018
T8 sequence (O15018 329-429, limits assumed, looked up): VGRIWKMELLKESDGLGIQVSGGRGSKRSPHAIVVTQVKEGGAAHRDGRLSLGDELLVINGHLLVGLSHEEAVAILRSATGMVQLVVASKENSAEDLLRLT

T9: LIN7B, Q9HAP6
T9 sequence (Q9HAP6 88-185, limits assumed, looked up): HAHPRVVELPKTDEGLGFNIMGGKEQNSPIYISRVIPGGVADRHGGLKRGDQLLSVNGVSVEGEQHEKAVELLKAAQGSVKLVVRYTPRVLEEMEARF


Experiments:
Test in all cases: holdup assay
Set-up in all cases: key: below the threshold = too weak to quantify, mostly under pKd 3.1 to 4
Details in all cases: plain residues with an end cap or a label only (N-terminal biotin on a linker: ado-ado)
Inadl_9, Q8NI35 = biological target: Inadl_9, Q8NI35
TX1BP3, O14907 = biological target: T1, TX1BP3, O14907
TJP2_1, Q9UDY2 = biological target: TJP2_1, Q9UDY2
TIAM2, Q8IVF5 = biological target: T2, TIAM2, Q8IVF5
FRMPD2_2, Q68DX3 = biological target: FRMPD2_2, Q68DX3
DLG3_1, Q92796 = biological target: T3, DLG3_1, Q92796
RAPGEF6, Q8TEU7 = biological target: T4, RAPGEF6, Q8TEU7
FRMPD2_1, Q68DX3 = biological target: FRMPD2_1, Q68DX3
PCLO, Q9Y6V0 = biological target: T5, PCLO, Q9Y6V0
DLG4_2, P78352 = biological target: DLG4_2, P78352
GRIP2_4, Q9C0E4 = biological target: GRIP2_4, Q9C0E4
GOPC, Q9HD26 = biological target: GOPC, Q9HD26
PDLIM1, O00151 = biological target: PDLIM1, O00151
LNX1_1, Q8TBB1 = biological target: LNX1_1, Q8TBB1
HTRA3, P83110 = biological target: T6, HTRA3, P83110
Inadl_6, Q8NI35 = biological target: Inadl_6, Q8NI35
DLG4_3, P78352 = biological target: DLG4_3, P78352
LAP2, Q96RT1 = biological target: LAP2, Q96RT1
IL16_4, Q14005 = biological target: IL16_4, Q14005
SNTG1, Q9NSN8 = biological target: T7, SNTG1, Q9NSN8
SCRIB_3, Q14160 = biological target: SCRIB_3, Q14160
Inadl_1, Q8NI35 = biological target: Inadl_1, Q8NI35
PDZD2_2, O15018 = biological target: T8, PDZD2_2, O15018
MAGI2_3, Q86UL8 = biological target: MAGI2_3, Q86UL8
LIN7B, Q9HAP6 = biological target: T9, LIN7B, Q9HAP6
HTRA2, O43464 = biological target: HTRA2, O43464
NHERF4_2, Q86UT5 = biological target: NHERF4_2, Q86UT5
TJP1_3, Q07157 = biological target: TJP1_3, Q07157
Sequence of TJP1_3, Q07157 (Q07157 416-512): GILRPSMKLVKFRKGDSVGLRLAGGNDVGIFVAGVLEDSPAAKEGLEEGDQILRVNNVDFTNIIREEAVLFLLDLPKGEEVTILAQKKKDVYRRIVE

Sequence of GRIP2_4, Q9C0E4 (Q9C0E4 446-548): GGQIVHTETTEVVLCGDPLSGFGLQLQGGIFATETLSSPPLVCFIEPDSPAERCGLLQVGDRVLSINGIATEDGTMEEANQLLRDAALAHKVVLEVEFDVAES
Sequence of TJP2_1, Q9UDY2 (Q9UDY2 24-128): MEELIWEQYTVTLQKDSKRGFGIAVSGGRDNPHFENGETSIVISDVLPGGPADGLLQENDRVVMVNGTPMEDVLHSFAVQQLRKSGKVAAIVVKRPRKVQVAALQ
Sequence of PDLIM1, O00151 (O00151 1-87): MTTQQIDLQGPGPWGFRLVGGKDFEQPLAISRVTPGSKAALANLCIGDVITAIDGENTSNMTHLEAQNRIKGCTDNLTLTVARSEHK
Sequence of MAGI2_3, Q86UL8 (Q86UL8 600-682): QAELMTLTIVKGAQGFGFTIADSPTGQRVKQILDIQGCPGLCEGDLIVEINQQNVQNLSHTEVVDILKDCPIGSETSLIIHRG
Sequence of IL16_4, Q14005 (Q14005 1229-1329): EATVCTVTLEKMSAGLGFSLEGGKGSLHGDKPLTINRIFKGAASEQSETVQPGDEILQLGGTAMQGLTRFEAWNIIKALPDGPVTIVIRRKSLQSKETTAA
Sequence of LNX1_1, Q8TBB1 (Q8TBB1 261-371): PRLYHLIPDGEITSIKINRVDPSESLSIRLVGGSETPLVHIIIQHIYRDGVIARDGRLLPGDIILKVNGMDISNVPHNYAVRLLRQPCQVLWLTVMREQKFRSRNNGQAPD
Sequence of LAP2, Q96RT1 (Q96RT1 other isoform, or with tags, fused parts or gaps): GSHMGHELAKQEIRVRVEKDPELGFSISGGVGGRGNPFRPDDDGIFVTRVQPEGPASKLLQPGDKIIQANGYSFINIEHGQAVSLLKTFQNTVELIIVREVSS
Sequence of Inadl_6, Q8NI35 (Q8NI35 1058-1167): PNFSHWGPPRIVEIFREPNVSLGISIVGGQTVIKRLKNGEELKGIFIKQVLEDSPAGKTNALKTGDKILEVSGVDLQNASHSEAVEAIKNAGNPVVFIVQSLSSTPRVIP
Sequence of NHERF4_2, Q86UT5 (Q86UT5 220-308): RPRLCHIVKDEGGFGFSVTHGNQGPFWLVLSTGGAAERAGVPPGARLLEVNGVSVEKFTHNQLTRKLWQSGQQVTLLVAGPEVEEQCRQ
Sequence of HTRA2, O43464 (O43464 355-458): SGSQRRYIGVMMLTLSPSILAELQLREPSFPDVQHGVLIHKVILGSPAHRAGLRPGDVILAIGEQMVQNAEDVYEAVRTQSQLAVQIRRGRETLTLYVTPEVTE
Sequence of DLG4_2, P78352 (P78352 155-259): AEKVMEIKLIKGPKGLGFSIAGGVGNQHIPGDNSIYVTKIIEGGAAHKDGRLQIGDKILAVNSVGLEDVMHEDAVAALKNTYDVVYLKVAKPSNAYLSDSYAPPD
Sequence of Inadl_9, Q8NI35 (Q8NI35 1530-1615): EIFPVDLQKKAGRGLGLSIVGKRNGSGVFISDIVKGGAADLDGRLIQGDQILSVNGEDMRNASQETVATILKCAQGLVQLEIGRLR
Sequence of SCRIB_3, Q14160 (Q14160 999-1103): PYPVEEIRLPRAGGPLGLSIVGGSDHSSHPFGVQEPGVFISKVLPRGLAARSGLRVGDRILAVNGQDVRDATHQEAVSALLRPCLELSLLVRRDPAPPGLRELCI
Sequence of Inadl_1, Q8NI35 (Q8NI35 113-229): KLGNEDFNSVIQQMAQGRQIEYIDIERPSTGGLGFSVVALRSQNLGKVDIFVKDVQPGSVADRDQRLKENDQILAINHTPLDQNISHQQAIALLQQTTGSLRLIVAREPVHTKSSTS
Sequence of FRMPD2_1, Q68DX3 (Q68DX3 770-861): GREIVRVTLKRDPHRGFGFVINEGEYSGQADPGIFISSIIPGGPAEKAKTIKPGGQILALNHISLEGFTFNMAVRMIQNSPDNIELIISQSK
Sequence of FRMPD2_2, Q68DX3 (Q68DX3 944-1038): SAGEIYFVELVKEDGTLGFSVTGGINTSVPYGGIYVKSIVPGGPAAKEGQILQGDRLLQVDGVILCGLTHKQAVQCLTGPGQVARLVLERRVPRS
Sequence of DLG4_3, P78352 (P78352 306-403): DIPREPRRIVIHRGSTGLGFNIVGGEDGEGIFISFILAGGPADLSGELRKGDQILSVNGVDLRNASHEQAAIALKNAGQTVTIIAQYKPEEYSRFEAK

Row | Binder | pKd (Inadl_9, Q8NI35) | pKd (TX1BP3, O14907) | pKd (TJP2_1, Q9UDY2) | pKd (TIAM2, Q8IVF5) | pKd (FRMPD2_2, Q68DX3) | pKd (DLG3_1, Q92796) | pKd (RAPGEF6, Q8TEU7) | pKd (FRMPD2_1, Q68DX3) | pKd (PCLO, Q9Y6V0) | pKd (DLG4_2, P78352) | pKd (GRIP2_4, Q9C0E4) | pKd (GOPC, Q9HD26) | pKd (PDLIM1, O00151) | pKd (LNX1_1, Q8TBB1) | pKd (HTRA3, P83110) | pKd (Inadl_6, Q8NI35) | pKd (DLG4_3, P78352) | pKd (LAP2, Q96RT1) | pKd (IL16_4, Q14005) | pKd (SNTG1, Q9NSN8) | also measured
1 | STKRKLASAV [NCF1, P14598] | below the threshold | 3.72 | below the threshold | 3.75 | below the threshold | 3.49 | below the threshold | below the threshold | below the threshold | 4.51 | below the threshold | below the threshold | below the threshold | below the threshold | below the threshold | below the threshold | 3.67 | below the threshold | below the threshold | below the threshold | pKd (SCRIB_3, Q14160): 3.55; pKd (Inadl_1, Q8NI35): below the threshold; pKd (PDZD2_2, O15018): 4.51; pKd (MAGI2_3, Q86UL8): below the threshold; pKd (LIN7B, Q9HAP6): below the threshold; pKd (HTRA2, O43464): below the threshold; pKd (NHERF4_2, Q86UT5): below the threshold; pKd (TJP1_3, Q07157): below the threshold
2 | SPDRDRESIV [SCN5A, Q14524] | 3.54 | 4.5 | below the threshold | below the threshold | 3.76 | 3.9 | below the threshold | below the threshold | below the threshold | 4.73 | below the threshold | 3.7 | below the threshold | 3.88 | below the threshold | below the threshold | below the threshold | below the threshold | below the threshold | 4.72 | pKd (SCRIB_3, Q14160): 3.86; pKd (Inadl_1, Q8NI35): below the threshold; pKd (PDZD2_2, O15018): 5.4; pKd (MAGI2_3, Q86UL8): 4.02; pKd (LIN7B, Q9HAP6): below the threshold; pKd (HTRA2, O43464): below the threshold; pKd (NHERF4_2, Q86UT5): below the threshold; pKd (TJP1_3, Q07157): below the threshold
3 | TNSRHGETTV [FZD2, Q14332] | 3.74 | 3.68 | below the threshold | below the threshold | 3.54 | 4.33 | below the threshold | 3.6 | below the threshold | 4.92 | below the threshold | 3.88 | below the threshold | below the threshold | below the threshold | below the threshold | 4.24 | 4.02 | below the threshold | 4.27 | pKd (SCRIB_3, Q14160): 4.62; pKd (Inadl_1, Q8NI35): below the threshold; pKd (PDZD2_2, O15018): 4.18; pKd (MAGI2_3, Q86UL8): 3.53; pKd (LIN7B, Q9HAP6): 3.82; pKd (HTRA2, O43464): below the threshold; pKd (NHERF4_2, Q86UT5): below the threshold; pKd (TJP1_3, Q07157): below the threshold
4 | ARESQKVSHV [FAM110B, Q8TC76] | 3.9 | 4.9 | 3.87 | below the threshold | 4.31 | below the threshold | below the threshold | below the threshold | below the threshold | 4.53 | below the threshold | 3.98 | below the threshold | 3.97 | below the threshold | 4.05 | below the threshold | 3.66 | below the threshold | 4.34 | pKd (SCRIB_3, Q14160): 4.47; pKd (Inadl_1, Q8NI35): below the threshold; pKd (PDZD2_2, O15018): 5.17; pKd (MAGI2_3, Q86UL8): 4.25; pKd (LIN7B, Q9HAP6): below the threshold; pKd (HTRA2, O43464): below the threshold; pKd (NHERF4_2, Q86UT5): below the threshold; pKd (TJP1_3, Q07157): below the threshold
